In patent US20240317847A1 (Bayer, published 2024) one finds Kd data, which are given here for eight molecules.

The term Kd denotes the constant that tells how readily two partners part at equilibrium. Higher therefore signals weaker binding.

The target of test [1] is T1, human IL-11 (human, UniProt P20809 22-199).
T1 construct: bought from Invigate; also called hIL-11; hIL11
T1 sequence: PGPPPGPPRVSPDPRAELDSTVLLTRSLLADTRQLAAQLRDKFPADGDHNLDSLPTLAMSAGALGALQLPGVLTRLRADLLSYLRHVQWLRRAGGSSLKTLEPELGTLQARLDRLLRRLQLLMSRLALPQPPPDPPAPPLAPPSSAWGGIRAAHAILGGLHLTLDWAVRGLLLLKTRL
Nature of the test: SPR, antibody captured, IL-11 as analyte. Here is the method:
(§1) Antibodies were captured via anti-mouse Fc IgGs (“Mouse antibody capture kit, Order No. BR100383, Cytiva) covalently amine coupled to a Series S CM5 sensor chip (Cytiva). The amine coupling was carried out according to the manufacturer's instructions using 1-ethyl-3-(3-dimethylaminopropyl) carbodiimide hydrochloride (EDC), N-hydroxysuccinimide (NHS) and ethanolamine HCl, pH 8.5 (“Amine Coupling Kit” BR-1000-50, Cytiva.). Human IL-11 (Invigate, e.g., lot #C121021-19), and murine IL-11 (Invigate, e.g., lot #C210819-09) were used as analytes. […] Based on that experiment an IL-11 concentration range was chosen to optimally determine kinetics and affinity of anti-IL-11 antibodies in multicycle kinetics mode. The sensor surface was regenerated with glycine pH 1.7 after each antigen injection. Obtained sensorgrams were double referenced (subtraction of reference flow cell signal and buffer injection) and were fitted to a 1:1 Langmuir binding model to derive kinetic data using the Biacore T200 Evaluation software or the Biacore Insight software.
(§2) 42 hits from the IL-11 and […] screening analysis were selected, expressed by transient transfection of mammalian cells and purified as described in Example 15. Antibodies were then tested for human IL-11 and murine IL-11 binding by SPR as described in Example 16.
In general terms: In SPR one partner is held on a chip, and binding of the other changes the refractive index at the surface.

In test [2] the target is T2, murine IL-11 (mouse, UniProt P47873 22-199).
T2 construct: bought from Invigate; also called mIL-11; mIL11
T2 sequence: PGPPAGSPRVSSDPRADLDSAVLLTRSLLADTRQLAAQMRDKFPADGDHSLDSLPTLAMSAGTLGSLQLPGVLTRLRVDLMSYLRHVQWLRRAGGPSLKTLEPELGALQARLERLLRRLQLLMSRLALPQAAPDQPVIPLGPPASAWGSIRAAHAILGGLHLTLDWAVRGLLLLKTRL
Nature of the test: SPR, antibody captured, IL-11 as analyte. Here is the method: as §1, §2

B1: TPP-26310 (antibody, V domains shown)
VH: EVQLLESGGGLVQPGGSLRLSCAASGFTFSSYGMHWVRQAPGKGLEWVSVISYDGSYKYYADSVKGRFTISRDNSKNTLYLQMNSLRAEDTAVYYCAAGVPDYWGQGTLVTVSS
VL: QSVLTQPPSASGTPGQRVTISCTGSSSNIGAGYDVHWYQQLPGTAPKLLIYSNNERPWGVPDRFSGSKSGTSASLAISGLRSEDEADYYCAAWDDSLNGPVFGGGTKLTVL
notes: constant regions not restated
In the case of B1, the Kd in test [1] is 13 nM; in test [2], 0.66 nM.

B2: TPP-26312 (antibody, V domains shown)
VH: EVQLLESGGGLVQPGGSLRLSCAASGFTFSSYGMHWVRQAPGKGLEWVSVISYDGSYKYYADSVKGRFTISRDNSKNTLYLQMNSLRAEDTAVYYCAAGVPDYWGQGTLVTVSS
VL: QSVLTQPPSASGTPGQRVTISCTGSSSNIGAGLDVHWYQQLPGTAPKLLIYSNNERPSGVPDRFSGSKSGTSASLAISGLRSEDEADYYCAAWDDSLNGPVFGGGTKLTVL
notes: constant regions not restated
B2: the Kd came out at 10 nM in test [1] and 0.8 nM in test [2].

B3: TPP-26316 (antibody, V domains shown)
VH: EVQLLESGGGLVQPGGSLRLSCAASGFTFSSYGMHWVRQAPGKGLEWVSVISYDGSYKYYADSVKGRFTISRDNSKNTLYLQMNSLRAEDTAVYYCAAGVPDYWGQGTLVTVSS
VL: QSVLTQPPSASGTPGQRVTISCTGSSSNIGAGYDVHWYQQLPGTAPKLLIYSNNERPSGVPDRFSGSKSGTSASLAISGLRSEDEADYYCAAWDMSLNGPVFGGGTKLTVL
notes: constant regions not restated
As for B3, the Kd in test [1] amounted to 8.4 nM; in test [2], 0.72 nM.

B4: TPP-26317 (antibody, V domains shown)
VH: EVQLLESGGGLVQPGGSLRLSCAASGFTFSSYGMHWVRQAPGKGLEWVSVISYDGSYKYYADSVKGRFTISRDNSKNTLYLQMNSLRAEDTAVYYCAAGVPDYWGQGTLVTVSS
VL: QSVLTQPPSASGTPGQRVTISCTGSSSNIGAEYDVHWYQQLPGTAPKLLIYSNNERPSGVPDRFSGSKSGTSASLAISGLRSEDEADYYCAAWDDSLNGPVFGGGTKLTVL
notes: constant regions not restated
On to B4, for which the Kd in test [1] stood at 8.1 nM; in test [2], 0.9 nM.

B5: TPP-26314 (antibody, V domains shown)
VH: EVQLLESGGGLVQPGGSLRLSCAASGFTFSSYGMHWVRQAPGKGLEWVSVISYDGSYKYYADSVKGRFTISRDNSKNTLYLQMNSLRAEDTAVYYCAAGVPDYWGQGTLVTVSS
VL: QSVLTQPPSASGTPGQRVTISCTGSSSNIGAGYDVHWYQQLPGTAPKLLIYSNNERPSGVPDRFSGSKSGTSASLAISGLRSEDEADYYCAAWDWSLNGPVFGGGTKLTVL
notes: constant regions not restated
For B5, the Kd in test [1] came to 8.3 nM; in test [2], 0.56 nM.

B6: TPP-26313 (antibody, V domains shown)
VH: EVQLLESGGGLVQPGGSLRLSCAASGFTFSSYGMHWVRQAPGKGLEWVSVISYDGSYKYYADSVKGRFTISRDNSKNTLYLQMNSLRAEDTAVYYCAAGVPDYWGQGTLVTVSS
VL: QSVLTQPPSASGTPGQRVTISCTGSSSNIGAYYDVHWYQQLPGTAPKLLIYSNNERPSGVPDRFSGSKSGTSASLAISGLRSEDEADYYCAAWDDSLNGPVFGGGTKLTVL
notes: constant regions not restated
For the molecule B6, the Kd is 9.1 nM in test [1] and 0.46 nM in test [2].

B7: TPP-26315 (antibody, V domains shown)
VH: EVQLLESGGGLVQPGGSLRLSCAASGFTFSSYGMHWVRQAPGKGLEWVSVISYDGSYKYYADSVKGRFTISRDNSKNTLYLQMNSLRAEDTAVYYCAAGVPDYWGQGTLVTVSS
VL: QSVLTQPPSASGTPGQRVTISCTGSSSNIGAHYDVHWYQQLPGTAPKLLIYSNNERPSGVPDRFSGSKSGTSASLAISGLRSEDEADYYCAAWDDSLNGPVFGGGTKLTVL
notes: constant regions not restated
Regarding B7, the Kd came to 14 nM in test [1] and 0.95 nM in test [2].

B8: TPP-26318 (antibody, V domains shown)
VH: EVQLLESGGGLVQPGGSLRLSCAASGFTFSSYGMHWVRQAPGKGLEWVSVISYDGSYKYYADSVKGRFTISRDNSKNTLYLQMNSLRAEDTAVYYCAAGVPDYWGQGTLVTVSS
VL: QSVLTQPPSASGTPGQRVTISCTGSSSNIGAGYFVHWYQQLPGTAPKLLIYSNNERPSGVPDRFSGSKSGTSASLAISGLRSEDEADYYCAAWDDSLNGPVFGGGTKLTVL
notes: constant regions not restated
B8: the Kd in test [1] is 14 nM; in test [2], 8.1 nM.
